Consider 2 proteins from article PMC9008408.

A short description of series [1]: anti-Flag IP, ubiquitin blot, MG132, A549-LV-TIM-4-Flag. The note with it: glycan lost; control: no TM.
The nature of series [2]: CHX chase, western blot of remaining protein, HEK293. The conditions noted are these: glycan lost; control: wild type TIM-4, no TM. (A western blot detects proteins with antibodies after separation by electrophoresis.)
Series [3] in a line: confocal immunofluorescence, mCherry-Sec61b ER marker, A549. The note with it: glycan lost; control: wild type TIM-4.
The nature of series [4]: anti-HA IP, ubiquitin blot, MG132, A549. The conditions noted are these: glycan lost; control: wild type TIM-4.

B1: TIM-4: TM (protein)
parent chain: MSKEPLILWLMIEFWWLYLTPVTSETVVTEVLGHRVTLPCLYSSWSHNSNSMCWGKDQCPYSGCKEALIRTDGMRVTSRKSAKYRLQGTIPRGDVSLTILNPSESDSGVYCCRIEVPGWFNDVKINVRLNLQRASTTTHRTATTTTRRTTTTSPTTTRQMTTTPAALPTTVVTTPDLTTGTPLQMTTIAVFTTANTCLSLTPSTLPEEATGLLTPEPSKEGPILTAESETVLPSDSWSSVESTSADTVLLTSKESKVWDLPSTSHVSMWKTSDSVSSPQPGASDTAVPEQNKTTKTGQMDGIPMSMKNEMPISQLLMIIAPSLGFVLFALFVAFLLRGKLMETYCSQKHTRLDYIGDSKNVLNDVQHGREDEDGLFTL
Consider B1, for which the “other: ubiquitination” value in series [1] is given as “increases”. For the same protein, in series [2], the degradation_or_half_life result is “decreases”.

B2: TIM-4: N291Q (protein)
parent chain: B1 parent chain
For B2, the localisation_or_trafficking result in series [3] is reported as “changes, co-localized with the ER-tracker compared with wild type TIM-4”. Besides, the “other: ubiquitination” value in series [4] is “increases”.
